Reference: article PMC11697783, “Structure/function of ATP sulfurylase domain of human 3′-phosphoadenosine 5′-phosphosulfate synthase (hPAPSS)” (Biochemistry and Biophysics Reports, 2024)

B1: COOH-terminal (aa 220-623) ATPS domain of hPAPSS1 (Homo sapiens) (protein)
chain: LQERDIVPVDASYEVKELYVPENKLHLAKTDAETLPALKINKVDMQWVQVLAEGWATPLNGFMREREYLQCLHFDCLLDGGVINLSVPIVLTATHEDKERLDGCTAFALMYEGRRVAILRNPEFFEHRKEERCARQWGTTCKNHPYIKMVMEQGDWLIGGDLQVLDRVYWNDGLDQYRLTPTELKQKFKDMNADAVFAFQLRNPVHNGHALLMQDTHKQLLERGYRRPVLLLHPLGGWTKDDDVPLMWRMKQHAAVLEEGVLNPETTVVAIFPSPMMYAGPTEVQWHCRARMVAGANFYIVGRDPAGMPHPETGKDLYEPSHGAKVLTMAPGLITLEIVPFRVAAYNKKKKRMDYYDSEHHEDFEFISGTRMRKLAREGQKPPEGFMAPKAWTVLTEYYKSLEK
notes: C-terminal ATP sulfurylase domain with linker, residues 220-623, APS kinase domain deleted; recombinant, purified
B2: hPAPSS1 (full length, residues 1-623) (Homo sapiens) (protein)
chain: MEIPGSLCKKVKLSNNAQNWGMQRATNVTYQAHHVSRNKRGQVVGTRGGFRGCTVWLTGLSGAGKTTVSMALEEYLVCHGIPCYTLDGDNIRQGLNKNLGFSPEDREENVRRIAEVAKLFADAGLVCITSFISPYTQDRNNARQIHEGASLPFFEVFVDAPLHVCEQRDVKGLYKKARAGEIKGFTGIDSEYEKPEAPELVLKTDSCDVNDCVQQVVELLQERDIVPVDASYEVKELYVPENKLHLAKTDAETLPALKINKVDMQWVQVLAEGWATPLNGFMREREYLQCLHFDCLLDGGVINLSVPIVLTATHEDKERLDGCTAFALMYEGRRVAILRNPEFFEHRKEERCARQWGTTCKNHPYIKMVMEQGDWLIGGDLQVLDRVYWNDGLDQYRLTPTELKQKFKDMNADAVFAFQLRNPVHNGHALLMQDTHKQLLERGYRRPVLLLHPLGGWTKDDDVPLMWRMKQHAAVLEEGVLNPETTVVAIFPSPMMYAGPTEVQWHCRARMVAGANFYIVGRDPAGMPHPETGKDLYEPSHGAKVLTMAPGLITLEIVPFRVAAYNKKKKRMDYYDSEHHEDFEFISGTRMRKLAREGQKPPEGFMAPKAWTVLTEYYKSLEK
notes: full length 1-623 (APSK + ATPS domains); E. coli BL21(DE3) pLys; Ni column and gel filtration
B3: hPAPSS1 (full length, residues 1-623) (Homo sapiens; N426K) (protein)
chain: MEIPGSLCKKVKLSNNAQNWGMQRATNVTYQAHHVSRNKRGQVVGTRGGFRGCTVWLTGLSGAGKTTVSMALEEYLVCHGIPCYTLDGDNIRQGLNKNLGFSPEDREENVRRIAEVAKLFADAGLVCITSFISPYTQDRNNARQIHEGASLPFFEVFVDAPLHVCEQRDVKGLYKKARAGEIKGFTGIDSEYEKPEAPELVLKTDSCDVNDCVQQVVELLQERDIVPVDASYEVKELYVPENKLHLAKTDAETLPALKINKVDMQWVQVLAEGWATPLNGFMREREYLQCLHFDCLLDGGVINLSVPIVLTATHEDKERLDGCTAFALMYEGRRVAILRNPEFFEHRKEERCARQWGTTCKNHPYIKMVMEQGDWLIGGDLQVLDRVYWNDGLDQYRLTPTELKQKFKDMNADAVFAFQLRNPVHKGHALLMQDTHKQLLERGYRRPVLLLHPLGGWTKDDDVPLMWRMKQHAAVLEEGVLNPETTVVAIFPSPMMYAGPTEVQWHCRARMVAGANFYIVGRDPAGMPHPETGKDLYEPSHGAKVLTMAPGLITLEIVPFRVAAYNKKKKRMDYYDSEHHEDFEFISGTRMRKLAREGQKPPEGFMAPKAWTVLTEYYKSLEK
notes: as for B2

Columns and labels:
purified protein [1] = substrate: Nc1ncnc2c1ncn2[C@@H]1O[C@H](COP(=O)(O)OP(=O)(O)OP(=O)(O)O)[C@@H](O)[C@H]1O; assay: purified protein; format: biochemical, Homo sapiens; conditions: Tris-HCl pH 8.0, MgCl2, 37 °C; for K0.5: half maximal estimate, biphasic response, ATPS + APSK combined activity (two ATP sites)
purified protein [2] = substrate: O=S(=O)(O)O; assay: purified protein; format: biochemical, Homo sapiens; conditions: fixed ATP, Tris-HCl pH 8.0, MgCl2, 37 °C, labelled compound

Row | Protein | Km (purified protein [1]; fixed sulfate, ATP sulfurylase activity) [µM] | Km (purified protein [2]; ATP sulfurylase activity) [µM] | K0.5 (purified protein [1]) [mM] | Km (purified protein [2]; ATPS + APSK combined activity) [µM]
1 | B1 | 2200 | 530 | – | –
2 | B2 | – | – | 4.3 | 330
3 | B3 | – | – | 3.7 | 440
